In the supplement of paper PMC10567573:
± gives the standard deviation.

Assay: protein stability index of a GFP-peptide fusion (GPS, HEK-293T) (PSI 1-6); higher = more stable
[1] = treatment: DMSO, c terminus: a fixed tail appended
[2] = treatment: MLN4924 1 uM, 8 h, c terminus: a fixed tail appended
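Further: 24-mer peptide tiles fused after GFP, lentivirally expressed, FACS-sorted into six equal bins by GFP/DsRed ratio, decoded by Illumina sequencing, PSI is the read-weighted mean bin number.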

Sequence | protein stability index [1] | protein stability index [2] | protein stability index (treatment: DMSO, c terminus: native) | protein stability index (treatment: MLN4924 1 uM, 8 h, c terminus: native)
ILVVTVQLILFGLSNQLAVTFREE [MCOLN1] | 3.02 ± 0.39 | 3.05 ± 0.23 |  | 
IMNFIDIVAIIPYFITLGTEIAEQ [KCNA1] | 3.2 ± 0.41 | 2.89 ± 0.15 |  | 
IMSRVNAYQQGVGYQMLGNVVTIG [PHTF1] | 2.21 ± 0.48 | 2.31 ± 0.34 |  | 
INSDTGVLYALRSFDYEQFHELQM [PCDHGA10] | 2.2 ± 0.2 | 2.35 ± 0.29 |  | 
IPLDLGCTQVTQDGDIPNIPAEEN [FAM189A2] | 5.48 ± 0.12 | 5.48 ± 0.18 |  | 
IQECVPEDLELKKKIFAQLDSIID [CRYL1] | 3.07 ± 0.2 | 3.33 ± 0.34 |  | 
IQLRRWQETRGELQCRSPPRLHGA [TBC1D10A] | 2.74 ± 0.23 | 2.85 ± 0.39 |  | 
IQPGPFRAVLKYLYTGELDENERD [RHOBTB2] | 3.37 ± 0.53 | 3.43 ± 0.25 |  | 
IRESRLFGAVVRWAEAECQRQQLP [BTBD1] | 2.5 ± 0.16 | 2.46 ± 0.13 |  | 
IRLGIEGYPTYKEKVKKRPGGRPE [BTBD10] | 3.41 ± 0.54 | 3.42 ± 0.41 |  | 
ISQMDSDQFIPIWTVANMEEIKKL [LARP4] | 3.25 ± 0.19 | 3.32 ± 0.16 |  | 
ITDNFCYFRHADPTWQNSIRHNLS [FOXJ1] | 2.32 ± 0.13 | 2.43 ± 0.17 |  | 
IVANTMPTHLSNGQMSTPETPQPS [HNF4A] | 4.43 ± 0.22 | 4.51 ± 0.15 |  | 
IVAVIDSAQLQELVCHVMMGNLVM [INTS3] | 3.25 ± 0.72 | 3.05 ± 0.55 |  | 
IVDFLTHHAQTSKTERINALELLG [FEM1C] | 2.09 ± 0.14 | 2.18 ± 0.23 |  | 
IVKKPKSMQCKVILLDGSEYTCDV [EPB41L3] | 1.93 ± 0.24 | 2.23 ± 0.69 |  | 
IVRFSGQSRGVPAVSESYSAPGAC [FBXO34] | 3.15 ± 0.34 | 3.36 ± 0.38 |  | 
IYHLDGQETPYLVKLPLPAERVTL [DVL3] | 2.28 ± 0.24 | 2.34 ± 0.26 |  | 
IYQYVQNSMAPHPARDYVVLRTWR [DLC1] | 1.93 ± 0.23 | 2.03 ± 0.37 |  | 
KAGIEQEGYWLPGDEISIKKKNTN [ZMYND11] | 4.5 ± 0.3 | 4.62 ± 0.35 |  | 
KALYETELADARRALDDTARERAK [LMNB1] | 5.191 ± 0.038 | 5.22 ± 0.26 |  | 
KAVANMQGEMDRKCKQVKEKCKEE [ZMYND11] | 5.14 ± 0.31 | 5.31 ± 0.3 |  | 
KAVMKTSVLLSWEIPENYNSAMPF [PTPRD] | 2.26 ± 0.67 | 2.26 ± 0.43 |  | 

Sequence | protein stability index [1] | protein stability index [2] | protein stability index (treatment: DMSO, c terminus: native) | protein stability index (treatment: MLN4924 1 uM, 8 h, c terminus: native)
KEDGEPSWREAKVSWFGSPTTSFL [PWWP2B] | 2.95 ± 0.082 | 3.17 ± 0.55 |  | 
KEEREDTPIQLQELLALETALGGQ [TCAP] | 5.17 ± 0.24 | 5.04 ± 0.14 |  | 
KESLCAKEEKCQGKGDDSETDKNN [KCNA4] | 5.62 ± 0.16 | 5.42 ± 0.1 |  | 
KESNANPIFMRKDTKMSFQWRIRN [DPCD] | 2.83 ± 0.15 | 3.01 ± 0.24 |  | 
KFSNIVDKFVIVDCRYPYEYEGGH [CDC25B] | 2.47 ± 0.16 | 2.25 ± 0.62 |  | 
KGDSTIRELKAKLSGVEEELQRTK [SASS6] | 4.86 ± 0.32 | 4.58 ± 0.21 |  | 
KGNTALHDCAESGSLDIMKMLLMY [FEM1C] | 1.97 ± 0.22 | 1.96 ± 0.34 |  | 
KGYLFHTVAGKHQDLKYISPEIMA [CDC25A] | 2.32 ± 0.34 | 2.43 ± 0.23 |  | 
KIEIQTLTGLFKGDKCHSLVGKPK [CASP6] | 3.01 ± 0.12 | 3.15 ± 0.42 |  | 
KIIAVGVIDILPNCVSSVYLYYDP [ATE1] | 2.62 ± 0.42 | 3.19 ± 0.43 |  | 
KINAWDLYYYMTQTEELKYSIDQE [NLN] | 2.34 ± 0.3 | 2.19 ± 0.35 |  | 
KKIVHYTCFDQRKRANAAFLIGAY [CDC14A] | 2.37 ± 0.31 | 2.07 ± 0.83 |  | 
KKPLAGSVDEQNALREVYAHAVLG [WEE1] | 3.43 ± 0.18 | 3.54 ± 0.52 |  | 
KKVHKGTVPKNDADDESETPEELE [GLT8D2] | 5.49 ± 0.27 | 5.65 ± 0.093 |  | 
KLKNLRRKQRRRERWLQKQGKYSG [RNF180] | 3.83 ± 0.33 | 3.93 ± 0.4 |  | 
KLMKEILDKKVEKVTISNRLVSSP [HSP90AB1] | 2.81 ± 0.25 | 2.84 ± 0.42 |  | 
KLQDLIKDVLRYGEEQLKTHKKCK [FCHO1] | 2.42 ± 0.35 | 2.22 ± 0.29 |  | 
KNLFRLEMDMVVFRPEMKKHSWCL [N4BP2L1] | 2.48 ± 0.48 | 2.4 ± 0.45 |  | 
KPYKCQQCDKRFRWSSDLNKHLTT [ZNF75A] | 2.18 ± 0.14 | 2.37 ± 0.17 |  | 
KQKGSEENLDEAREQKEKSPPDQP [ADD1] | 5.68 ± 0.26 | 5.78 ± 0.15 |  | 
KQLIYRVRRTDDTPVVLVGNKSDL [RIT1] | 3.06 ± 0.26 | 3.23 ± 0.23 |  | 
KRAPGEETEKEEEEEDREEEDENG [NEUROD6] | 5.6 ± 0.34 | 5.69 ± 0.43 |  | 
KREACHCEEVKMTVASEAKIQLSD [FAN1] | 4.76 ± 0.19 | 5 ± 0.18 |  | 

Sequence | protein stability index [1] | protein stability index [2] | protein stability index (treatment: DMSO, c terminus: native) | protein stability index (treatment: MLN4924 1 uM, 8 h, c terminus: native)
KRRRKSCQACRFMKCLKVGMLKEG [ESRRG] | 2.67 ± 0.2 | 2.78 ± 0.25 |  | 
KSMKPYNYCSAYESFYESTSPECA [NEUROD6] | 3.15 ± 0.17 | 3.23 ± 0.35 |  | 
KTSLWEEENALWEEERAFWMENNG [CCDC70] | 4 ± 0.12 | 3.94 ± 0.19 |  | 
KVALEPQLWELGKVLRKAGLSAGY [LPCAT4] | 2.27 ± 0.26 | 2.21 ± 0.36 |  | 
KVEQNSRPVSCSGRDALLDQIRQG [WASL] | 4 ± 0.16 | 3.96 ± 0.081 |  | 
KVHRARKTMPKSVVGLHAASKDPR [EHMT1] | 4.1 ± 0.16 | 4.08 ± 0.31 |  | 
KVTISNRLVSSPCCIVTSTYGWTA [HSP90AB1] | 2.84 ± 0.9 | 2.51 ± 0.37 |  | 
KWDGKSTTIKRKREDDKLVVECVM [FABP4] | 2.82 ± 0.3 | 2.83 ± 0.23 |  | 
KWMLGAEDLTPEDDMPIGRNVLEL [PTPRD] | 3.9 ± 0.12 | 3.92 ± 0.44 |  | 
KWNTQTKARSYSYPHCTGISQQDP [ZC2HC1C] | 3.33 ± 0.34 | 3.63 ± 0.38 |  | 
KYPPDRECIYIIEAAPRQCIELYF [NETO1] | 3.13 ± 0.77 | 2.7 ± 1.3 |  | 
LACLHVACVVQQKDARQWFAELSV [CCNC] | 3.22 ± 0.61 | 3.28 ± 0.45 |  | 
LAEIRCDLERQNQEYQVLLDVRAR [KRT34] | 3.57 ± 0.17 | 3.59 ± 0.13 |  | 
LAIDAIHQLGFIHRDIKPDNLLLD [STK38L] | 2.23 ± 0.35 | 2.04 ± 0.31 |  | 
LAMKIKVGSDDLERIEARLATLEG [PSD2] | 2.79 ± 0.42 | 2.85 ± 0.49 |  | 
LANLSRTQLLHLGLTQGLIERLK [KLHDC10] |  |  | 2.38 ± 0.53 | 2.35 ± 0.18
LAREGVAAFYKGYVPNMLGIIPYA [SLC25A25] | 2.42 ± 0.49 | 2.38 ± 0.27 |  | 
LARGIHVAGILSLLLGTAYSFYLF [POMT2] | 2.6 ± 0.62 | 2.65 ± 0.47 |  | 
LASITETIQVHRRYWRSLRVMKVE [HDAC6] | 2.42 ± 0.3 | 2.31 ± 0.16 |  | 
LASRNPCPWHYLHLSGSHNTLAPT [RSPH3] | 2.41 ± 0.14 | 2.45 ± 0.16 |  | 
LCDVTLMPGDTDDAFPVHRVMMAS [KLHL13] | 3.03 ± 0.34 | 3.2 ± 0.19 |  | 
LCNLGKERFLELAPDFVGDILWEH [ETS2] | 2.46 ± 0.26 | 2.28 ± 0.61 |  | 
LCVNYFFYGETVADYFATFVQREE [CDS1] | 3.4 ± 0.68 | 2.61 ± 0.99 |  | 

Sequence | protein stability index [1] | protein stability index [2] | protein stability index (treatment: DMSO, c terminus: native) | protein stability index (treatment: MLN4924 1 uM, 8 h, c terminus: native)
LDQLRFPNGVQLSPAEDFVLVAET [APMAP] | 3.09 ± 0.23 | 3.27 ± 0.23 |  | 
LDSSLASLVGNLGISGTTTKKGDL [SNAP91] | 4.76 ± 0.24 | 4.73 ± 0.19 |  | 
LDTGTNYDYVREFKRSTGTWHHTK [GAN] | 3.34 ± 0.11 | 3.42 ± 0.25 |  | 
LEAELLQIEERHQEKKRKFLESTD [SMARCE1] | 4.89 ± 0.69 | 5.04 ± 0.24 |  | 
LEEALYEYQPLQIETYGPHVPELE [MNAT1] | 3.25 ± 0.6 | 3.65 ± 0.47 |  | 
LEENPYDLDAWSILIREAQNQPID [CSTF3] | 3.74 ± 0.32 | 3.85 ± 0.31 |  | 
LEEVERAILEMKWKVRAEKEACQR [ZBED2] | 3.87 ± 0.18 | 3.76 ± 0.21 |  | 
LEGEDAHLSSQQASGQSYSSREVF [KRT16] | 5.04 ± 0.15 | 5.02 ± 0.1 |  | 
LELDDNLDTERPVQKRARSGPQPR [TRIB3] | 4.9 ± 0.38 | 5.11 ± 0.18 |  | 
LELLGATYVDKKRDLLGALKHWRR [FEM1A] | 2.48 ± 0.11 | 2.62 ± 0.3 |  | 
LELSCDKFPPEEELQREWLGNREA [CPN1] | 4.95 ± 0.25 | 5.11 ± 0.16 |  | 
LERQLQAEFIESGQYRANEGTSSI [TAF7L] | 4.7 ± 0.2 | 4.66 ± 0.12 |  | 
LESPIDPQPLSFKEPPLLLGVLHP [APMAP] | 3.43 ± 0.31 | 3.69 ± 0.24 |  | 
LEVKIHDWYQKQTPTSPECDYSQY [KRT15] | 2.81 ± 0.3 | 2.94 ± 0.25 |  | 
LGDPPPLLTLPRPPLSGALASITE [HDAC6] | 4.33 ± 0.38 | 4.41 ± 0.32 |  | 
LGRMGKHEQALFIYVHILKDTRMA [VPS39] | 2.89 ± 0.71 | 2.98 ± 0.78 |  | 
LHAQLRDLTSSSSDELSWIIELLE [ELF3] | 2.83 ± 0.22 | 2.99 ± 0.39 |  | 
LHDRGAQVIHPQEFRRWRDTGVAF [DNAAF3] | 2.83 ± 0.2 | 2.99 ± 0.38 |  | 
LHRLFREKSLDQLKSISAEEILTL [PHTF1] | 2.11 ± 0.45 | 2.25 ± 0.47 |  | 
LIALLTWGYIRYSGQYRELGGAID [ATL3] | 3.4 ± 0.13 | 3.52 ± 0.17 |  | 
